Data on two substances can be found in PMC6556434.

Assay in all cases: ITC
In general terms: Isothermal titration calorimetry measures the heat released or taken up as one component is titrated into another.

One experiment has as its target H3(1-15)K4me3 peptide.
The target of another experiment is H3(20-35)K27me3 peptide.
The target of experiment [1] is H3(1-35)K4me3K27me3 doubly methylated peptide.

For orientation: Kd means a measure of binding affinity in units of concentration. “EARLY BOLTING IN SHORT DAY (EBS), full length (from UniProt F4JL28 1-234) (natural protein)”: the results for the Kd with H3(1-15)K4me3 peptide and with H3(20-35)K27me3 peptide were 86.8 µM and 49.8 µM, respectively.
A word on the stoichiometry N: it is a count of units in the complex or per binding partner. Substance “EBS without the C-terminal autoinhibition loop (EBSΔC, 1-199) (from UniProt F4JL28 1-199) (domain or fragment)” yielded an equilibrium dissociation constant (Kd) with H3(1-15)K4me3 peptide of 30.7 µM. In experiment [1], this substance displayed a stoichiometry N of 1.
